Source: publication PMC4207043, “Distinct N-terminal regions of the exomer secretory vesicle cargo Chs3 regulate its trafficking itinerary” (Frontiers in Cell and Developmental Biology, 2014)

T1: Recombinant "core" exomer complex (Chs5 residues 1–77 and Chs6-6xHis) (S. cerevisiae, UniProt Q12114 1-77; P40955 1-746)
T1 construct: Chs5, S. cerevisiae, residues 1–77; Chs6, S. cerevisiae; The end of the 6xHis tag is read from the printed name Chs6-6xHis; also called Chs5(1–77)/Chs6-6xHis exomer complex; purified exomer; source: recombinant, purified as described for the Chs5(1–299)/Chs6-6xHis construct (Paczkowski et al., 2012); not shown: His6, C-terminal, kept
T1 sequence (looked up) 1: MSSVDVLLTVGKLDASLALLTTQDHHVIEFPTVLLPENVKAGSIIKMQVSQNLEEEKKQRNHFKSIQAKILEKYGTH
T1 sequence (looked up) 2: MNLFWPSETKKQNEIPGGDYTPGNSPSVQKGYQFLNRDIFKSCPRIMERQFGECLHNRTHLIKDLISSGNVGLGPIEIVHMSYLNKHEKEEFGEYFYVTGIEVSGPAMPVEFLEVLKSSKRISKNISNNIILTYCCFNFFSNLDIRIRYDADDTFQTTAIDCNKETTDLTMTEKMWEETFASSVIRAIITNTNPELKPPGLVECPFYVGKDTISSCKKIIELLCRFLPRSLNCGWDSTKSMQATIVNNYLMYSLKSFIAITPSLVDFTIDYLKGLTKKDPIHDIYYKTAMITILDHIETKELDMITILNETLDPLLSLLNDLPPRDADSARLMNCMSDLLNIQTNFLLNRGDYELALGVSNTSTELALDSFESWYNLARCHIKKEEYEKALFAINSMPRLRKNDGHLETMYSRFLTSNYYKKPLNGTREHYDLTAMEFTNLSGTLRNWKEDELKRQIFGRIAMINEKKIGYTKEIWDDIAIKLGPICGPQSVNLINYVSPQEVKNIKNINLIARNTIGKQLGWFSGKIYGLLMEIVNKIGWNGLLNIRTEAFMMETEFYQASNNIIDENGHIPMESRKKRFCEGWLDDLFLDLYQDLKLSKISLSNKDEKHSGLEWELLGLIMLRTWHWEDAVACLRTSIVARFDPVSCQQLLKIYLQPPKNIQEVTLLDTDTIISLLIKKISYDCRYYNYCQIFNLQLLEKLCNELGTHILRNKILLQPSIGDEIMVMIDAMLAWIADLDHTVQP

T2: Chs6-6xHis (S. cerevisiae, UniProt P40955 1-746)
T2 construct: Chs6, S. cerevisiae; The Chs6 chain of m1, written alone for the pairs that touch in the crystal structure; The end of the tag is read from the printed name; also called His-tagged Chs6; source: recombinant, purified with Chs5(1–77) as described (Paczkowski et al., 2012); not shown: His6, C-terminal, kept
T2 sequence (looked up): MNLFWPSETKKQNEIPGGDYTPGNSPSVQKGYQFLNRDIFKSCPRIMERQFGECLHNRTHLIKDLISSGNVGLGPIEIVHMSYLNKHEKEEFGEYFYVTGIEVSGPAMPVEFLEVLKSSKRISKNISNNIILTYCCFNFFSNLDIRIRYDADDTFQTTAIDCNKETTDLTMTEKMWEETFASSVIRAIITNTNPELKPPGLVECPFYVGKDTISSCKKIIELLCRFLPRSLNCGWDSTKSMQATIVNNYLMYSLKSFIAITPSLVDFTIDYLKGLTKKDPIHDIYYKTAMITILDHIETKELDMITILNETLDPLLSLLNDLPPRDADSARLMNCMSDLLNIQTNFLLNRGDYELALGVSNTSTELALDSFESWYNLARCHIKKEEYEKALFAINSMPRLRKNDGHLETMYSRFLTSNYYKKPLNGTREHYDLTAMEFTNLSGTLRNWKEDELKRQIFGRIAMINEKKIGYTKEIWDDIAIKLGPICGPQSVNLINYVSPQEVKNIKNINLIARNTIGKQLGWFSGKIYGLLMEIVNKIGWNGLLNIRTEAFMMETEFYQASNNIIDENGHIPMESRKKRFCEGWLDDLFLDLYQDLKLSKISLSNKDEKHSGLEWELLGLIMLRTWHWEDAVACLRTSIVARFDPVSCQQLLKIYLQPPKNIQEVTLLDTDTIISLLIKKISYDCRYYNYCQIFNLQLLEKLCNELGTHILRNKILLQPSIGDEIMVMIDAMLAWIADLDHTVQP


Legend:
[1] = target: T1, Recombinant "core" exomer complex (Chs5 …); experiment: pull-down; GST-Chs3 fragments held on glutathione resin; 10 μl of 5 mg/ml purified exomer added to resin in 500 μl PBS + 1 mM DTT, ~1 h at 4°C, washed 3 times; exomer detected by Western blot with anti-6xHis antibody (by Coomassie staining in Figure 5C); conditions: both partners purified
Chs6-6xHis = target: T2, Chs6-6xHis; experiment: crystal structure; Chs5(1–77)/Chs6-6xHis exomer co-crystallised with Chs3 peptide, hanging drop vapor diffusion; 0.3 M ammonium sulfate, 0.1 M citric acid pH 4.0; molar ratio 3.85:1 peptide:exomer; conditions: both partners purified

| Binder | binding result [1] | binding result (Chs6-6xHis) |
| --- | --- | --- |
| MTGLNGDDPHSVGSGAPHRQGSLVRPERSRLNNP (domain or fragment, S. cerevisiae, UniProt P29465 1-52, looked up, Chs3 (chitin synthase), S. cerevisiae, residues 1–52 lacking residues 10–27; Vector pGEX-2T; the end of GST is read from the printed name GST-Chs3; source: E. coli Rosetta2 (DE3), isolated from cleared lysate on glutathione resin; not shown: GST, N-terminal, kept) [GST-Chs3 fragment, residues 1–52 with residues 10–27 deleted] | binds | – |
| GST-Chs3(1–52) (domain or fragment, S. cerevisiae, UniProt P29465 1-52, looked up, Chs3 (chitin synthase), S. cerevisiae, residues 1–52; Vector pGEX-2T; the end of GST is read from the printed name GST-Chs3; also called Residues 1–52; wild-type GST-Chs3(1–52) fragment; source: E. coli Rosetta2 (DE3), isolated from cleared lysate on glutathione resin; not shown: GST, N-terminal, kept) MTGLNGDDPDDYYLNLNQDEESLLRSRHSVGSGAPHRQGSLVRPERSRLNNP | binds | – |
| DDYYLNLNQDEESLLRSR (peptide, UniProt P29465 10-27, looked up, Chs3 (chitin synthase), S. cerevisiae, residues 10–27; only residues 12–25 are visible in the structure; also called peptide of Chs3 residues 10–27; source: synthetic peptide (Genscript, 95% purity)) [Chs3 peptide matching residues 10–27] | – | binds |

Next, values leading:

| binding result [1] | binding result (Chs6-6xHis) | Binder |
| --- | --- | --- |
| binds | – | HSVGSGAPHRQGSLVRPERSRLNNP (domain or fragment, S. cerevisiae, UniProt P29465 28-52, looked up, Chs3 (chitin synthase), S. cerevisiae, residues 28–52; Vector pGEX-2T; the end of GST is read from the printed name GST-Chs3; source: E. coli Rosetta2 (DE3), isolated from cleared lysate on glutathione resin; not shown: GST, N-terminal, kept) [GST-Chs3 fragment, residues 28–52] |
| – | binds | Chs5(1–77) (domain or fragment, S. cerevisiae, UniProt Q12114 1-77, looked up, Chs5, S. cerevisiae, residues 1–77; The Chs5 chain of m1, written alone for the pair that touches in the crystal structure; also called Chs5 residues 1–77; truncated Chs5; source: recombinant, purified with Chs6-6xHis as described (Paczkowski et al., 2012)) MSSVDVLLTVGKLDASLALLTTQDHHVIEFPTVLLPENVKAGSIIKMQVSQNLEEEKKQRNHFKSIQAKILEKYGTH |
